This is an account of results in publication PMC8818087 (Nature cancer, 2021).

One test addresses T1, TC-SND1 (16-339aa) (UniProt Q7KZF4 16-339, FlAsH-EDT2 labelling reagent on the tetracysteine tag).
T1 sequence: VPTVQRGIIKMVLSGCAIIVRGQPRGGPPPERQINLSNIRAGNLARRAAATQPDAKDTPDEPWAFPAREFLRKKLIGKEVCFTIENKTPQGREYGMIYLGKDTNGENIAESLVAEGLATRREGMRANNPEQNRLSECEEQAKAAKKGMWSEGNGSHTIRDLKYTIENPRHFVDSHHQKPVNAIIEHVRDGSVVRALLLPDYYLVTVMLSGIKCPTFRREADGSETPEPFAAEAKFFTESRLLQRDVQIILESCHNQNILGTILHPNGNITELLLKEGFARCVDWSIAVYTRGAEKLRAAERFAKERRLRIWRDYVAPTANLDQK
Kind of test: FRET or BRET.

Test [1] concerns the target T2, purified SND1 (16-339aa) protein (UniProt Q7KZF4 16-339).
T2 sequence: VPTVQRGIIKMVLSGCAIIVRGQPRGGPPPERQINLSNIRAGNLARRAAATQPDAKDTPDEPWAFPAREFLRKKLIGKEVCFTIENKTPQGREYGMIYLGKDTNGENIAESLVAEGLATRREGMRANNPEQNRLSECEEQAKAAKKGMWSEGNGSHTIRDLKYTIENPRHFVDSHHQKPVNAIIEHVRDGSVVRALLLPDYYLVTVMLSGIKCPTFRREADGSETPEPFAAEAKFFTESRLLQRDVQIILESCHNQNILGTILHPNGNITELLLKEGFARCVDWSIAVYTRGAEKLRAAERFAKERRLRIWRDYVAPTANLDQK
Kind of test: MST.

Take SSADPNSDWNAPAEEWGNWVDE (domain or fragment) [CFP-MTDH (386-407aa)]: the binding result with TC-SND1 (16-339aa) was “binds”.

Turning to PNSDWNAPAEEWGNW [wild type MTDH (MTDH-WT) minimal peptide], the binding result (in test [1]; in the test with TC-SND1 (16-339aa)) was “binds” each time.
